Experimental data reported in patent US20240018268A1.

Target: binding reagent of the similar bridge assay for the anti-CD19 (SJ25C1) CAR
Test: similar bridge assay for the anti-CD19 (SJ25C1) CAR

Chain of binding reagent of the similar bridge assay for the anti-CD19 (SJ25C1) CAR (scFv, as listed by the source limits assumed): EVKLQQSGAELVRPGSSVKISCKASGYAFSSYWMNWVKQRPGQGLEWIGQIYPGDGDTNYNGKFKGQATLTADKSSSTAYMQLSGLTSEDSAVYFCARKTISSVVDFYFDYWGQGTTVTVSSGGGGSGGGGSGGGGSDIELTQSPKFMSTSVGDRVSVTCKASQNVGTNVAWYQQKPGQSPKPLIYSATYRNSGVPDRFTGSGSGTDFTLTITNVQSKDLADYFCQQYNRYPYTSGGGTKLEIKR

B1: anti-idiotype antibody clone A-1 (anti-ID A-1) (antibody, mouse IgG1, kappa, V domains shown)
VH: QVQLQQPGSELVRPGGSVKLSCKASDYTFTSYWMHWVRQRPGQGLEWIGNIYPGSGGTNYDEKFKRKATLTVDTSSSTAYMQLRSLTSEDSAVYYCTREVTTVAYYYSMDYWGQGTSVTVSS
VL: DIQMTQTTSSLSASLGDRVTISCRASQDISNYLNWYQQKPDGTVKLLIYYTSRLHSGVPSRFSGSGSGTDYSLTISNLEQEDIATYFCQQGKTVPFTFGSGTKLEIKR
With B1 the fold signal over plasma background was > 5 fold and the sensitivity of the bridge assay was < 100 ng/mL.
